Positions count from the first letter of the chain named. Names and notes keep the numbering of the source. Where two headings read alike, the source gives them in different places.
What was measured:
[1] = target: T1, STRADα (Homo sapiens, UniProt Q7RTN6); assay: Displacement of TNP-ATP by ATP and ADP (fluorescence); type: binding; conditions: STRADα alone, No Mg2+, displacement of 5 µM TNP-ATP
T1 construct: wild-type and mutant forms of STRADα (residues 54–431) and MO25α (residues 1–341) were expressed individually as GST fusion proteins in E. coli; GST (cleaved yes); made in house; host or cells: E. coli
T1 sequence (Q7RTN6 54-431): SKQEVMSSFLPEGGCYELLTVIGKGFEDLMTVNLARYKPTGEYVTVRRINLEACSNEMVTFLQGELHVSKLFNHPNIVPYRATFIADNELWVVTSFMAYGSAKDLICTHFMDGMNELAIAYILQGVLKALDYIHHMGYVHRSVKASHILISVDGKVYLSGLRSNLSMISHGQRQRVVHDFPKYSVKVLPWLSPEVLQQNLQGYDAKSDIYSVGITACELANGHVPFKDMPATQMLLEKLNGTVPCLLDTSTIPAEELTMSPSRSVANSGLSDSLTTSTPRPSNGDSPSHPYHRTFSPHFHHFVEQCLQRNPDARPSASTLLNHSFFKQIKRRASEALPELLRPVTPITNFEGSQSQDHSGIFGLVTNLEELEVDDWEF
Description: Fluorescent measurements of TNP-ATP (Molecular Probes), were obtained at 25°C in assay buffer (with the addition of 0.5–1.0 mM MgCl2 where indicated) using 1-cm pathlength cuvettes in a VARIAN Cary Eclipse Fluorescence spectrophotometer (Varian). Fluorescence was recorded using a 410-nm/540-nm excitation/emission wavelengths from 500 to 600 nm. In all cases, signal from the TNP-ATP buffer control was subtracted as background. For all binding studies, STRADα and STRADα mutants were assayed at 2 µM. In cases where STRADα/MO25α complexes were assayed, wild-type or mutant MO25α (2 µM) were preincubated for at least 2 h at 4°C prior to a fluorescence binding experiment. For saturation binding experiments, concentrated stocks of TNP-ATP were added stepwise, covering a range of concentrations from 0.05 to 30 µM. For displacement experiments, the concentration of TNP-ATP was fixed at 5 µM, and ATP or ADP was titrated in, covering a range of concentrations from 0.05 to 500 µM.
All data were analysed using GraphPad-PRISM software (http://www.graphpad.com). […] In the displacement studies, equilibrium constant values for ATP and ADP were calculated by first determining the logEC50 value, using a standard dose-response equation: F x/F max = minimum+(maximum−minimum)/(1+10^([N]−logEC 50 ^)), where [N] equals the concentration of added nucleotide, and F x/F max represents the fractional occupancy. […]

[2] = target: T2, MO25α (R227A) (Homo sapiens, UniProt Q7RTN6+Q9Y376, R227A); assay: SPR BIAcore binding of STRADα to immobilised MO25α; conditions: + ATP + Mg2+
T2 construct: wild-type and mutant forms of STRADα (residues 54–431) and MO25α (residues 1–341) were expressed individually as GST fusion proteins in E. coli; GST (cleaved yes); made in house; host or cells: E. coli
T2 sequence (Q9Y376 1-341 R227A): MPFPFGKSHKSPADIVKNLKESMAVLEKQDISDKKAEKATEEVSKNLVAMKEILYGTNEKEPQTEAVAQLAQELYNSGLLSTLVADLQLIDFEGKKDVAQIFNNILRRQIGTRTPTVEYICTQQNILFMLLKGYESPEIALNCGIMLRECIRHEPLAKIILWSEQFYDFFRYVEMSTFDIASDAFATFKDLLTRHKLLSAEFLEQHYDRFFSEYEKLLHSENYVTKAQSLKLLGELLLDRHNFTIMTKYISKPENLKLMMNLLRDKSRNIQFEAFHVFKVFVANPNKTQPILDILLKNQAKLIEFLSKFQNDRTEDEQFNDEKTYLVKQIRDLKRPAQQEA
T2 sequence (Q7RTN6 59-431): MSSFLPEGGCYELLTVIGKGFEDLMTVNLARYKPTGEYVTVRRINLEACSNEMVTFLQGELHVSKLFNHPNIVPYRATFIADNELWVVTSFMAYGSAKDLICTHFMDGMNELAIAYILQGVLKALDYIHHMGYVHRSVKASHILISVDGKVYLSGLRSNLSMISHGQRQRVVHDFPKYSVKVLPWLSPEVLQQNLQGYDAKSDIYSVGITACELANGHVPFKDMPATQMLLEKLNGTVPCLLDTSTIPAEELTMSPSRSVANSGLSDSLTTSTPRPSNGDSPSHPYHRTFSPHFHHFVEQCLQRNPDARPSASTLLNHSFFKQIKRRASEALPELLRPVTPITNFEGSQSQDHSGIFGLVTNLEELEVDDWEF
Description: (§1) SPR measurements were performed using a BIAcore T100 instrument. Wild-type and mutant forms of MO25α were immobilized on a CM5 sensor chip using standard amine-coupling chemistry, and 10 mM HBS (pH 7.4) was used as the running buffer. The carboxymethyl dextran surface was activated with a 7-min injection of a 1∶1 ratio of 0.4 M 1-ethyl-3-(3-dimethylaminopropyl) carbodiimide hydrochloride (EDC)/0.1 M N-hydroxy succinimide (NHS). MO25α (5–7 µM) was coupled to the surface with a 1-min injection of protein diluted in 10 mM sodium acetate (pH 5.5). Remaining activated groups were blocked with a 7-min injection of 1 M ethanolamine (pH 8.5). MO25α was immobilised on three flow cells of a CM5 chip at densities 1,700–2,500 RU performed at 25°C, leaving one flow cell as a reference to subtract any possible nonspecific binding.
(§2) STRADα was prepared in running buffer containing 50 mM Tris (pH 7.8), 50 mM NaCl, 270 mM sucrose, 1 mM DTT, 0.005% P20, and 0.1 mg/ml BSA in the presence/absence of 100 µM ATP and 1 mM MgCl2, and injected over all four surfaces at nine concentrations of a 3-fold concentration series (5 µM to […]). Each concentration was injected in duplicate over all surfaces. Association was measured for 60 s at a flow rate of 50 µl/min, and dissociation was measured for 3 min. STRADα dissociated completely from the MO25α surfaces, thus eliminating the need for a regeneration step.
(§3) Data were analysed using Scrubber 2 (BioLogic Software) and CLAMP software. Data were double referenced to the reference surface to subtract any possible nonspecific binding and to the blank buffer injections to subtract drift of the target from surface. Data were fitted to a 1∶1 or 2∶1 binding site model where appropriate. Kinetic association (k a) and dissociation rate (k d) constants were separately determined from the BIAcore sensorgrams, and equilibrium dissociation constants (K d) were calculated as: K d1 = k d1/k a1 and K d2 = k d2/k a2. Equilibrium constants were also independently calculated from a saturation binding curve, by fitting the measured response (R) from specific binding to the following equation: R = (R max1[STRAD]/([STRAD]+K d1))+(R max2[STRAD]/([STRAD]+K d2)), where R max1 and R max2 are the relative maximal changes in response for sites 1 and 2, respectively, and K d1 and K d2 are the equilibrium dissociation constants for sites 1 and 2, respectively. Dose-response curves for calculating the Hill slope (H) of the data were fitted with the following equation: R = minimum+(maximum−minimum)/(1+10^((logEC50−[STRAD])×H)) using GraphPad-PRISM software.

[3] = target: T3, MO25α (WT) (Homo sapiens, UniProt Q7RTN6+Q9Y376); assay: SPR BIAcore binding of STRADα to immobilised MO25α; conditions: + ATP + Mg2+
T3 construct: wild-type and mutant forms of STRADα (residues 54–431) and MO25α (residues 1–341) were expressed individually as GST fusion proteins in E. coli; GST (cleaved yes); made in house; host or cells: E. coli (STRADα: BL21(DE3)pLysS, co-expressed with MO25α and then separated from it)
T3 sequence (Q9Y376 1-341): T2 sequence (Q9Y376 1-341 R227A) with A227R
T3 sequence (Q7RTN6 59-431): T2 sequence (Q7RTN6 59-431)
Description: as §1, §2, §3

[4] = target: T4, MO25α (M260A) (Homo sapiens, UniProt Q7RTN6+Q9Y376, M260A); assay: SPR BIAcore binding of STRADα to immobilised MO25α; conditions: + ATP + Mg2+
T4 construct: wild-type and mutant forms of STRADα (residues 54–431) and MO25α (residues 1–341) were expressed individually as GST fusion proteins in E. coli; GST (cleaved yes); made in house; host or cells: E. coli
T4 sequence (Q9Y376 1-341 M260A): T2 sequence (Q9Y376 1-341 R227A) with A227R, M260A
T4 sequence (Q7RTN6 59-431): T2 sequence (Q7RTN6 59-431)
Description: as §1, §2, §3

[5] = target: T5, untagged STRADα (residues 59–431) (human, UniProt Q7RTN6 59-431); assay: SPR; BIAcore T100, MO25α amine-coupled to CM5 chip, STRADα injected (5 µM to 0.3 nM), 25°C, 50 mM Tris pH 7.8, 50 mM NaCl, 270 mM sucrose, 1 mM DTT, 0.005% P20, 0.1 mg/ml BSA; without ATP; Kd = kd/ka; conditions: both partners purified
T5 construct: STRADα, human, residues 59–431; also called STRADα lacking the His tag
T5 sequence (looked up): T2 sequence (Q7RTN6 59-431)

`Nc1ncnc2c1ncn2[C@@H]1O[C@H](COP(=O)(O)OP(=O)(O)OP(=O)(O)O)[C@@H](O)[C@H]1O` [ATP] was tested, and the Kd ([1]; read-out: Kd ATP) was 2000 to 3000 nM.

With `Nc1ncnc2c1ncn2[C@@H]1O[C@H](COP(=O)(O)OP(=O)(O)O)[C@@H](O)[C@H]1O` [ADP] the Kd ([1]; read-out: Kd ADP) was 2000 to 3000 nM.

B1: His-STRADα: STRADα (residues 59–431) with N-terminal 6-His tag, SPR analyte (protein)
chain: T2 sequence (Q7RTN6 59-431)
modifications: lysines chemically methylated in the 2.35 Å crystal form only; left off: His6 with TEV site (…), N-terminal, kept
notes: STRADα (residues 59–431) with N-terminal 6-His tag, SPR analyte
B1 was tested, and the kd1 [2] was 1.61 (7.0 × 10−3) s−1, the kd1 [3] was 0.55 (3.8 × 10−3) s−1 and the kd2 [3] was 0.08 (4.8 × 10−4) s−1. The kd1 [4] was 0.77 (4.6 × 10−3) s−1 and the kd2 [4] was 0.11 (5.3 × 10−4) s−1.

B2: MO25α (WT) (residues 1–341) (natural protein, human, UniProt Q9Y376 1-341, looked up)
chain: T2 sequence (Q9Y376 1-341 R227A) with A227R
notes: MO25α, human, residues 1–341 (full length); also called MO25α (WT, wild type); wild-type MO25α; source: E. coli, expressed individually as GST fusion, purified on glutathione-Sepharose, eluted with PreScission protease
With B2 the Kd [5] was 3800 nM.

B3: MO25α (M260A) (residues 1–341) (natural protein, human, UniProt Q9Y376 1-341, looked up)
chain: T2 sequence (Q9Y376 1-341 R227A) with A227R, M260A
notes: MO25α, human, residues 1–341 (full length), M260A; source: E. coli, expressed individually as GST fusion, purified on glutathione-Sepharose, eluted with PreScission protease
B3: binds [5].

From PMC2686265, “ATP and MO25α Regulate the Conformational State of the STRADα Pseudokinase and Activation of the LKB1 Tumour Suppressor” (PLoS Biology, 2009)
